From article PMC3383001 (Cell, 2012) come the findings set out here.

The chains are these.
B2: SUN2(522–717), minimal SUN domain of human SUN2 used for crystallography (domain or fragment, UniProt Q9UH99 522-717, looked up)
chain: GVTEEQVHHIVKQALQRYSEDRIGLADYALESGGASVISTRCSETYETKTALLSLFGIPLWYHSQSPRVILQPDVHPGNCWAFQGPQGFAVVRLSARIRPTAVTLEHVPKALSPNSTISSAPKDFAIFGFDEDLQQEGTLLGKFTYDQDGEPIQTFHFQAPTMATYQVVELRILTNWGHPEYTCIYRFRVHGEPAH

Data set [1] concerns the target B2. Kind of data set: crystal structure.
Data set [2] concerns the molecule itself. As to the kind of experiment: crystal structure.
Data set [3] concerns the molecule itself. Kind of data set: AUC.
Data set [4] addresses B2. As to the kind of experiment: crystal structure. This is another data set of the same source.

B1: KASH2 peptide (Nesprin-2, residues 6857–6885) co-expressed with SUN2(522–717) (peptide)
peptide: not shown
For B1, the “stoichiometry N” value in data set [1] is 3 KASH2 peptides per SUN2 trimer.

On to B2, for which the “stoichiometry N” value in data set [2] was found to be 3.

B3: His-SUN2(335–717), luminal domain of human SUN2 (predicted coiled-coil regions and SUN domain) (domain or fragment, UniProt Q9UH99 335-717, looked up)
chain: LVSRREAALKEDFRRETAARIQEELSALRAEHQQDSEDLFKKIVRASQESEARIQQLKSEWQSMTQESFQESSVKELRRLEDQLAGLQQELAALALKQSSVAEEVGLLPQQIQAVRDDVESQFPAWISQFLARGGGGRVGLLQREEMQAQLRELESKILTHVAEMQGKSAREAAASLSLTLQKEGVIGVTEEQVHHIVKQALQRYSEDRIGLADYALESGGASVISTRCSETYETKTALLSLFGIPLWYHSQSPRVILQPDVHPGNCWAFQGPQGFAVVRLSARIRPTAVTLEHVPKALSPNSTISSAPKDFAIFGFDEDLQQEGTLLGKFTYDQDGEPIQTFHFQAPTMATYQVVELRILTNWGHPEYTCIYRFRVHGEPAH
On to B3, for which the “stoichiometry N” value in data set [3] is 3.

B4: KASH1 peptide (Nesprin-1, residues 8769–8797) co-expressed with SUN2(522–717) (peptide)
peptide: not shown
Regarding B4, in data set [4], the binding result is listed as “binds”.

By stoichiometry N is commonly meant a count of units in the complex or per binding partner.
